The Kd is the concentration at which binding is half-saturated. Read a low Kd as a tighter complex.

Holding throughout (assay): BLI (Octet RED96), antagonist captured on biosensor, ligand in solution
A general note: Biolayer interferometry detects binding as a change in optical thickness at a sensor tip.

Experiment [1] deals with T1, human RANKL (receptor activator of nuclear factor-kappa B ligand) (human, UniProt O14788 140-317, limits assumed).
T1 construct: also called OPGL
T1 sequence (looked up): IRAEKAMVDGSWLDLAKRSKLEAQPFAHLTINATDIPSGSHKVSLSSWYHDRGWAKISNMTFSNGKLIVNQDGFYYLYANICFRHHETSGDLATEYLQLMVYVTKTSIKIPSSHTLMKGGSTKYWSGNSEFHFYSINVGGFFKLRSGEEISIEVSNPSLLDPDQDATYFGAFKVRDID
How it is done: (§1) Binding activities of individual bifunctional antagonists to human ligands or target proteins were measured by biolayer interferometry (BLI) using Octet RED96 (FortéBIO, Pall Corporation, USA). Binding analysis was performed by first capturing the polypeptide bifunctional antagonists to biosensors followed by two baseline steps in 1× kinetic buffer. The bifunctional antagonists-captured biosensors were then submerged in wells containing different concentrations of specific individual ligand, such as RANKL, Activin A, activin B, Activin AB, myostatin, TGF-β1, TGF-β2 or TGF-β3, for 6 min association followed by 6 min of dissociation time in 1× kinetic buffer. The bifunctional antagonists-captured sensors were also dipped in wells containing 1× kinetic buffer to allow single reference subtraction in order to compensate for the natural dissociation of captured bifunctional antagonists. The binding sensorgrams were collected using the 8-channel detection mode on the Octet RED96 biosensor. Data were acquired and analyzed using the data acquisition software v11.1 (FortéBIO, Pall Corporation, USA).

The next experiment concerns the target T2, human Activin A (human, UniProt A4D1W7 311-426, Activin A is a disulfide-linked homodimer of the inhibin beta A mature chain. One copy is given.).
T2 sequence: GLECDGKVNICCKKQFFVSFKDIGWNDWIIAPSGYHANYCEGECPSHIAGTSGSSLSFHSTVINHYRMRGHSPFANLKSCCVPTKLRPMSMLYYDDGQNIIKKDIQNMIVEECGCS
How it is done:
as §1

The next experiment deals with T3, human TGF-β3 (human, UniProt P10600 301-412).
T3 sequence (looked up): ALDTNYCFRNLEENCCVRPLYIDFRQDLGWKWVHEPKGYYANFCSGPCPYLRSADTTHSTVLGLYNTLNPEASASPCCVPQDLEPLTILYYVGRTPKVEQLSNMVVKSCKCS
How it is done:
as §1

A further experiment deals with human TGF-β1 (human, UniProt P01137 279-390). How it is done:
as §1

Chain of human TGF-β1 (P01137 279-390 limits assumed): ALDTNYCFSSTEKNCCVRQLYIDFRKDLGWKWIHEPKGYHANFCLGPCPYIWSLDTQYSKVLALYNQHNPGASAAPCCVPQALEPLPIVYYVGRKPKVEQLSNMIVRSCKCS

B1: bispecific antibody A237 (bispecific antibody)
heavy: QVQLVQSGAEVKKPGASVKVSCKASGYTFTSYGLSWVRQAPGQGLEWMGWIIPYNGNTNSAQKLQGRVTMTTDTSTSTAYMELRSLRSDDTAVYFCARDRDYGVNYDAFDIWGQGTMVTVSSGGGGSGGGGSGGGGSEVQLLESGGGLVQPGGSLRLSCAASGFTFSSYAMSWVRQAPGKGLEWVSGITGSGGSTYYADSVKGRFTISRDNSKNTLYLQMNSLRAEDTAVYYCAKDPGTTVIMSWFDPWGQGTLVTVSSASTKGPSVFPLAPCSRSTSESTAALGCLVKDYFPEPVTVSWNSGALTSGVHTFPAVLQSSGLYSLSSVVTVPSSNFGTQTYTCNVDHKPSNTKVDKTVERKCCVECPPCPAPPVAGPSVFLFPPKPKDTLMISRTPEVTCVVVDVSHEDPEVQFNWYVDGVEVHNAKTKPREEQFNSTFRVVSVLTVVHQDWLNGKEYKCKVSNKGLPAPIEKTISKTKGQPREPQVYTLPPSREEMTKNQVSLTCLVKGFYPSDIAVEWESNGQPENNYKTTPPMLDSDGSFFLYSKLTVDKSRWQQGNVFSCSVMHEALHNHYTQKSLSLSPGK
light: not shown
Take B1: the Kd in experiment [1] is about 0.001 nM; with human Activin A it was about 0.3 nM.

B2: bispecific antibody A241 (bispecific antibody, human IgG2, kappa)
heavy: QVQLVQSGAEVKKPGSSVKVSCKASGYTFSSNVISWVRQAPGQGLEWMGGVIPIVDIANYAQRFKGRVTITADESTSTTYMELSSLRSEDTAVYYCASTLGLVLDAMDYWGQGTLVTVSSGGGGSGGGGSGGGGSEVQLLESGGGLVQPGGSLRLSCAASGFTFSSYAMSWVRQAPGKGLEWVSGITGSGGSTYYADSVKGRFTISRDNSKNTLYLQMNSLRAEDTAVYYCAKDPGTTVIMSWFDPWGQGTLVTVSSASTKGPSVFPLAPCSRSTSESTAALGCLVKDYFPEPVTVSWNSGALTSGVHTFPAVLQSSGLYSLSSVVTVPSSNFGTQTYTCNVDHKPSNTKVDKTVERKCCVECPPCPAPPVAGPSVFLFPPKPKDTLMISRTPEVTCVVVDVSHEDPEVQFNWYVDGVEVHNAKTKPREEQFNSTFRVVSVLTVVHQDWLNGKEYKCKVSNKGLPAPIEKTISKTKGQPREPQVYTLPPSREEMTKNQVSLTCLVKGFYPSDIAVEWESNGQPENNYKTTPPMLDSDGSFFLYSKLTVDKSRWQQGNVFSCSVMHEALHNHYTQKSLSLSPGK
light: ETVLTQSPGTLSLSPGERATLSCRASQSLGSSYLAWYQQKPGQAPRLLIYGASSRAPGIPDRFSGSGSGTDFTLTISRLEPEDFAVYYCQQYADSPITFGQGTRLEIKGGGGSGGGGSGGGGSEIVLTQSPGTLSLSPGERATLSCRASQSVRGRYLAWYQQKPGQAPRLLIYGASSRATGIPDRFSGSGSGTDFTLTISRLEPEDFAVFYCQQYGSSPRTFGQGTKVEIKRTVAAPSVFIFPPSDEQLKSGTASVVCLLNNFYPREAKVQWKVDNALQSGNSQESVTEQDSKDSTYSLSSTLTLSKADYEKHKVYACEVTHQGLSSPVTKSFNRGEC
On to B2, for which the figures for the Kd (with human TGF-β3; in experiment [1]; in the experiment with human TGF-β1) were about 0.3 nM, about 0.7 nM and about 2 nM, respectively.

These data come from patent US20230391880A1 (published 2023).
